US20250026813A1 (published 2025)

B1: IMPI-055 (antibody, V domains shown)
VH: QVQLVQSGAEVKKPGASVKVSCKASGYTFTSYDINWVRQATGQGLEWMGWMNPNSGNTGYAQKFQGRVTMTRDTSINTAYMELSSLRSEDTAVYFCARGGRYCSDVTCYSGEPFDYWGQGTLVTVSS
VL: EIMLTQSPDFQSVTPKEKVTITCRASQSIGSSLHWYQQKPDQSPKLLIKFASQSISGVPSRFSGSGSGTDFTLTINSLEAEDAAAYYCHQSSSLPHTFGPGTKVEIK
B2: YANG-1112 (antibody, V domains shown)
VH: QITLKESGPTLVKPTQTLTLTCTFSGFSLSTGGVAVGWIRQPPGKALEWLAIIYWDDDKRYSPSLKSRLTITKDTSKNQVVLTMTNMDPVDTATYYCAHWGKDSFDIWGQGTMVTVSS
VL: SYELTQPPSVSVSPGQTARITCSGDALPRKYAYWYQQKSGQAPVLVIYEDNNRPSGIPERFSGSSSGTTATLTVSGAQVEDEADYYCYSTDTSGYVVFGGGTKLTVL
B3: YANG-1401 (antibody, V domains shown)
VH: QVHLQESGPGLVKPSGTLSLTCAVSGGSFSQINWWSWVRQSPGKGLEWIGEIYHSGSTNYNPSLKSRVTMSVDKSKNQFSLALNSVTAADTAVYYCARGYYGDNWFDSWGQGTLVTVSS
VL: DIQMTQSPSSLSASIGDRVTITCRASQGISNWLVWYQQKPEKAPKSLIYAASSLQSGVPSRFSGSGSGTDFTLTISSLHPEDFATYYCQQYSDYPLTFGGGTKVEIK
B4: IMPI-006 (antibody, V domains shown)
VH: QLQLQESGPGLVKPSETLSLTCTVSGGSISNSNYYWGWIRQPPGKGLEWIGSIYYSGRTYYNPSLKSRVTISVDTSKNQFSLKLSSVTAADTAVYYCARMGLLWFGEFYGMDVWGQGTTVTVSS
VL: DIQMTQSPSSLSASVGDRVTITCRASQGISSWLAWYQQKPEKAPKSLIYDASSLQRGVPSRFSGSGSGTDFTLTISSLQPEDFASYYCQQYNSYPLTFGGGTRVEIK
B5: YANG-2203 (antibody, V domains shown)
VH: QVQLVQSGAEVKQPGASVKVSCRASGYALTSFYVHWVRQAPGQGLEWMGIIKPSGGDTIYAQNLQGRVTMTRDTSTNTFYVELSSLRSEDTALYYCAISGNTRAFEIWGQGTMVTVSL
VL: QSVLTQPPSVSAAPGQKVTISCSGSSSNIGNNFVSWYQQLPGMVPKLLIYANNKRPSGIPDRFSGSRSGTSATLGITGLQTGDEADYYCGTWDSSRSAVLFGGGTKMTVL
B6: YANG-2205 (antibody, V domains shown)
VH: QIQLVQSGAEVKKPGASVKFSCKTSGYTFTSYYMVWVRQAPGQGLEWMGIIKPSGGNTIYAQKFQGRVTMTRDTSTNTVYMDLSSLRSEDTAVYYCARTGDRAFDVWGHGTMITVSS
VL: QSVLTQPPSVSAAPGQKVTISCSGSSSNIGNNFVSWYQQFPGTAPKLLIYDNNKRPSGIPDRFSGSKSGTSATLGITGLQTGDEADYYCGTWDSSLGAGVFGGGTKLTVL
B7: YANG-2204 (antibody, V domains shown)
VH: QMQLVQSGAEVKKPGASVKFSCKTSGYTFTNYYMVWVRQAPGQGLEWMGIIKPSGGNTIYAQKFQGRVTMTRDTSTNTVYMDLTSLRSEDTAVYYCARTGDRAFDVWGQGTMVTVSS
VL: QSVLTQPPSVSAAPGQKVTISCSGSSSNIGNNYVSWYQQLPGTAPKLLIYDNNKRPSGIPDRFSGSKSGTSATLGITGLQTGDEADYYCGTWDSSLGAGVFGGGTKLTVL
B8: IMPI-047 (antibody, V domains shown)
VH: EVQLVESGGGLIQPGGSLRLSCAASGFTVSSNYMNWVRQAPGKGLEWVSVIYSGGSTYYADSVKGRFTISRDNSKNTLYLQMNSLRTEDTAVYYCARDLVAYGMDVWGQGTTVTVSS
VL: DIQLTQSPSFLSASVGDRVTITCWASQGISSYLAWYQQKPGKAPKVLIYAASTLQSGVPSRFSGSGSGTEFTLTISSLQPEDFATYYCQLLNSNPLTFGGGTKVEIK
B9: IMPI-037 (antibody, V domains shown)
VH: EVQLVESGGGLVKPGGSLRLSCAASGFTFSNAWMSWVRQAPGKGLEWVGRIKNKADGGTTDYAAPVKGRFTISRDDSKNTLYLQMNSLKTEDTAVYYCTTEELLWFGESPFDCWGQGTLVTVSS
VL: DIQLTQSPSFLSASVGDRVTITCWASQGINSYLAWYQQKPGKAPKLLIYAASTLQSGVPSRFSGSGSGTEFTLTISSLQPEDFTTYYCQQFNDYPRTFGPGTKVEIK
B10: IMPI-017 (antibody, V domains shown)
VH: EVQLVESGGGLIQPGGSLRLSCAAAGLTVSSNYMNWVRQVPGKGLEWVSVIYSGGSTYYADSVKGRFTISRDNSKNTLYLQMNSLRAEDTAVYYCARDLGTLGMDVWGQGTTVTVSS
VL: DIQLTQSPSFLSASVGDRVTITCWASQGISTYLAWYQQKPGKAPKLLIYAASTLQSGVPSRFSGSGSGTEFTLTISSLQPEDFATYYCQQLNSYLPTFGQGTKVEIK
B11: IMPI-027 (antibody, V domains shown)
VH: QVQLQESGPGLVKPSQTLSLTCTVSGGSISSYGYYWNWIRQHPGKGLEWIGYIYYSGSTYYNPSLKSRVTISVDTSKNQLSLRLNSVSAADTAVYYCARDFGGNSNYFDYWGQGTLVTVSS
VL: AIQLTQSPSSLSASVGDRVTITCRTSQGISSALAWYQQKPGKAPKLLIYDASSLESGVPSRFSGSGSGTDFTLTISSLQPEDFATYYCQQFNSYPLTFGGGTKVEIK
B12: IMPI-022 (antibody, V domains shown)
VH: EVQLVESGGGLVQPGRSLRLSCAASGFTFDDYAMHWVRQAPGKGLEWVSGITWNSGSIGYADSVKGRFTISRDNAKNSLYLHMNSLRVEDTALYYCAKDLQGDYYYYGVDVWGQGTTVTVSS
VL: AIQLTQSPSSLSASVGDRVTITCRASQGISSALAWYQQKPGKAPKLLLYDASSLVSGVPSRFSGSRSGTDFTLTISSLQPEDFATYYCQQFISYPLTFGGGTRVEIK
B13: IMPI-033 (antibody, V domains shown)
VH: QVQLQESGPGLVKPSQTLSLTCTVSGGSISSYGYYWSWIRQHPGKGLEWIGYIYYSGSTYYNPSLKSRVTMSVDTSKNQLSLRLNSVSAADTAVYYCARDFGGNSNYFDYWGQGTLVTVSS
VL: AIQLTQSPSSLSASVGDRVTITCRASQGISSALAWYQQKPGKAPNLLIYDASSLESGVPSRFSGSGSGTDFTLTISSLQPEDFATYYCQQFNSSPLTFGGGTKVEIK
B14: IMPI-032 (antibody, V domains shown)
VH: QVQLQESGPGLVKPSGTLSLTCAVSGGSISSNKWWSWVRQPPGKGLEWIGEIDHSGSTMYNPSLKSRVTISVDKSKNQFSLKLNSVTAADTAVYYCTGEGYNWNYWGQGTRVTVSS
VL: DVVMTQSPLSLPVTLGQTASISCRSSQSLLYTDGNTYLSWFQQRPGQSPRRLIYKVSKWESGVPDRFSGSGSGTDFTLKISRVEAEDVGIYYCMQGTHWPLTFGGGTKVEIK
B15: IMPI-059 (antibody, V domains shown)
VH: EVQLVESGGGLIQPGGSLRLSCAASGFTVSSIYMSWVRQAPGKGLEWVSIIYSRGSTDYADSVKGRFTISRDISKNTLYLQMNSLRAEDTAVYYCARDGTMVRGVHAFDIWGQGTMVTVSS
VL: DIQMTQSPPSLSASIGDRVTITCQASQDISNYLNWYQQKPGKAPKLLIYDASNLETGVPSRFSGSGSGTDFTLTISNLQPEDIVTYYCQQYDNLPSSFGQGTKLEIK
B16: YANG-1302 (antibody, V domains shown)
VH: QVQLVESGGGAVQPGRSLRLSCRASGFTFSSFGMNWVRQVPGKGLVWVAGIWYDGRNKYYADSVKGRFTISRENSKNMLYLQMNSLRAEDTAVYYCARDQDSGFDGNWFGPWGQGTMVTVSS
VL: SYELTQPPSMSVSPGQTASITCSGDNLGDKYVCWYQQRPGQSPVMVIFQDSTRPSGIPERFSGSNSGNTATLTISGTQAMDEADYYCQAWDSNTAVFGGGTKLTVL
B17: YANG-2111 (antibody, V domains shown)
VH: GVQLVESGGGLVQPGRSLRLSCAASGFTFDDYALHWVRQVPGKGLEWVSSISWNSDDLGYADSVEGRFTISRDNAKNSLYLQMSSLRTEDTALYYCVKDTRAHYDILAGYRGLDSWGQGTLVTVSS
VL: DIVMTQSPLSLPVTPGEPASISCRSTQSLLHSNGYNFLDWYLQKPGQSPQLLIYLGSNRASGVPDRFSGSGSGTDFSLKISRVEAEDIGIYYCIQGLQTPITFGQGTRLEIK
B18: YANG-2107 (antibody, V domains shown)
VH: QVQLQESGPGLVKPSGTLSLTCAVSGGSIRSSNWWIWVRQSPGKGLEWIGEIYHGGNTNYNPSLKSRVTLSVDKSKNQFSLKLSSVTAADTAVYYCARALYDIGGVFDIWGQGTMVTVSS
VL: QSALTQPASVSGSPGQSISISCTGTSSDIGGYNYVSWYQQHPGKAPKLMIYDVSERPSGVSNRFSGSKSGNTASLTISGLQAEDEGDYYCCSYAANSNVVFGGGTKLSVL
B19: YANG-2108 (antibody, V domains shown)
VH: QVQLQESGPGQVKPSGTLSLTCAVSGGSIRSSNWWIWVRQPPGKGLEWIGEIYHGGNTNYSPSLKSRVSISVDKSKNHFSLNLTSVTAADTAVYYCARALYDVGGVFDIWGQGTMVTVSS
VL: QSALTQPASVSGSPGQSITISCTGSSSDVGGYNYVSWYQQHPGKAPKLMIYDVSERPSGVSNRFSGSKSGNTASLTISGLQAEDEGDYYCCSYAANSNVVFGGGTKLSVL
B20: IMPI-063 (antibody, V domains shown)
VH: EVQLVESGGGVVRPGGSLRLSCAASGFTFDDYGMSWVRQAPGKGLEWVSGIYWNGGSTGYADSVKGRFTISRDNAKNSLYLQMNSLRAEDMALYYCARGVGATDYWGQGTLVTVSS
VL: EIVLTQSPGTLSLSSGERATLACRASESVRGSFLAWYQQKPGQAPRLLIYGASRRATGIPDRFSGSGSGTDFTLTISRLEPEDFAVYYCQQYGNSPMCSFGQGTKLEIK
B21: YANG-1301 (antibody, V domains shown)
VH: QVQLVESGGGVVQPGRSLRLSCAASGFTFSSYGMHWVRQAPGKGLEWVAVIWYDGSNKFYADSVKGRFTISRDNSKNTLYLQMNSLKAEDTAVYYCARDTWIGESDTSWLDPWGQGTLVTVSS
VL: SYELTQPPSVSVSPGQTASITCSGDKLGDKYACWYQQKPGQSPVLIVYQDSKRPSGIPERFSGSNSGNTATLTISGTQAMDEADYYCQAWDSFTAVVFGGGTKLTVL

Key:
[1] = target: T1, S1 subunit of the SARS-CoV-2 spike protein (Sino Biological 40591-V08H), His tag (SARS-CoV-2, UniProt P0DTC2 16-685)
T1 construct: domain: S1 subunit

[2] = target: full-length stabilised spike trimer protein of SARS-CoV-2 virus (in-house, soluble ECD with trimeris (SARS-CoV-2, UniProt P0DTC2 14-1208; P10104 458-484)
[3] = target: SARS-CoV-2 spike protein bearing furin mutation and truncation in retention sequence, on pseudovirus (SARS-CoV-2, UniProt P0DTC2 14-1255); assay: cell-based or functional assay

| Binder | HTRF deltaF [1] [deltaF] | HTRF deltaF [2] [deltaF] | pseudovirus neutralisation IC50 [3] [pM] |
| --- | --- | --- | --- |
| B1 | 1030 | 551 | – |
| B2 | – | – | 520 |
| B3 | – | – | 530 |
| B4 | 885 | 1060 | – |
| B5 | – | – | 5450 |
| B6 | – | – | 3350 |
| B7 | – | – | 3300 |
| B8 | 2250 | 1410 | – |
| B9 | 626 | 557 | – |
| B10 | 752 | 550 | – |
| B11 | 755 | 800 | – |
| B12 | -5.8 | 483 | – |
| B13 | 929 | 884 | – |
| B14 | -8.9 | 218 | – |
| B15 | 569 | 403 | – |
| B16 | – | – | 230 |
| B17 | – | – | 1330 |
| B18 | – | – | 300 |
| B19 | – | – | 270 |
| B20 | -0.4 | 968 | – |
| B21 | – | – | 520 |
